Results reported in the supplement of paper PMC7877785.
± gives the uncertainty stated by the source.

Assay: self-splicing fitness, log relative to wild type (ln ratio); higher = more splicing; Tetrahymena group I intron in knt gene, E. coli kanamycin selection, DiMSum; sequences stand for … in CUCUCU…GGAGGGAAAAGUUAUCAGGCAUGCACCUGGUAGCUAGUCUUUAAACCAAUAGAUUGCAUCGGUUUAAAAGGCAAGACCGUCAAAUUGCGGGAAAGGGGUCAACAGCCGUUCAGUACCAAGUCUCAGGGGAAACUUUGAGAUGGCCUUGCAAAGGGUAUGGUAAUAAGCUGACGGACAUGGUCCUAACCACGCAGCCAAGUCCUAAGUCAACAGAUCUUCUGUUGAUAUGGAUGCAGUUCACAGACUAAAUGUCGGUCGGGGAAGAUGUAUUCUUCUCAUAAGAUAUAGUCGGACCUCUCCUUAAUGGGAGCUAGCGGAUGAAGUGAUGCAACACUGGAGCCGCUGGGAACUAAUUUGUAUGCGAAAGUAUAUUGAUUAGUUUUGGAGUACUCGUGGUCG
How it was run: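 Six replicate transformations of E. coli BL21(DE3) with a pET-22b(+) library were grown overnight at 37°C or 30°C. The library randomised all eight P1ex-region intron nucleotides, the intron lying in the knt kanamycin-resistance gene, and plates were LB agar with or without 25 μg/mL kanamycin plus 100 μg/mL carbenicillin, 50 μM IPTG and 0.2% rhamnose. Pooled colonies were amplicon-sequenced on an Illumina HiSeq 2500, and fitness is the DiMSum error-weighted combination of wild-type-normalised replicate fold changes, kanamycin versus none.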

Row | Sequence | self-splicing fitness (ln) (30 °C) | self-splicing fitness (ln) (37 °C)
1 | GUUUAGCAAUAUUACGAAUU | -2.25 ± 0.38 | -0.545 ± 0.31
2 | UACCAGCAAUAUUACGAAUA | -0.776 ± 0.086 | 0.199 ± 0.093
3 | UUAAAGCAAUAUUACGAGCA | -0.0954 ± 0.082 | 0.177 ± 0.11
4 | GAAGAGCAAUAUUACGCGGA | -2.64 ± 0.17 | -2.37 ± 0.21
5 | CGCGAGCAAUAUUACGUCUG | -0.412 ± 0.067 | -0.178 ± 0.073
6 | UAACAGCAAUAUUACGUUGG | -1.67 ± 0.083 | -0.828 ± 0.096
7 | AUGGAGCAAUAUUACGUUUA | -2.59 ± 0.28 | -1.83 ± 0.27
8 | ACCAAGCAAUAUUACGCAGG | -3.41 ± 0.13 | -2.59 ± 0.13
9 | CCAGAGCAAUAUUACGCUUG | -3.27 ± 0.26 | -2.93 ± 0.35
10 | GCCUAGCAAUAUUACGAACG | -2.19 ± 0.19 | -0.701 ± 0.27
11 | GUAAAGCAAUAUUACGGGAU | -1.62 ± 0.082 | -0.341 ± 0.11
12 | GACUAGCAAUAUUACGCUGC | -3.53 ± 0.21 | -2.85 ± 0.28
13 | AUCGAGCAAUAUUACGAUAU | -2.14 ± 0.17 | -0.583 ± 0.14
14 | UGUGAGCAAUAUUACGGCUC | -3.06 ± 0.44 | -3.18 ± 0.47
15 | AGAUAGCAAUAUUACGUGAU | -1.92 ± 0.11 | -0.886 ± 0.11
16 | AGCAAGCAAUAUUACGAAAG | -2.4 ± 0.23 | -1.36 ± 0.22
17 | AAAGAGCAAUAUUACGAAAA | – | -0.77 ± 0.4
18 | CUCAAGCAAUAUUACGACGA | -3.03 ± 0.23 | -1.35 ± 0.14
19 | CUCGAGCAAUAUUACGGAAG | -3.56 ± 0.2 | -1.32 ± 0.13
20 | CGCGAGCAAUAUUACGUUUC | -4.02 ± 0.27 | -2.06 ± 0.25
21 | GACUAGCAAUAUUACGUCCG | – | -1.5 ± 0.31
22 | ACCAAGCAAUAUUACGGCGG | -1.04 ± 0.083 | -0.733 ± 0.11
23 | AGACAGCAAUAUUACGUCGG | -2.44 ± 0.15 | -0.528 ± 0.15
24 | AAGAAGCAAUAUUACGCUUU | -4.1 ± 0.42 | -2.58 ± 0.21
25 | AAGGAGCAAUAUUACGCCUA | -1.21 ± 0.15 | -1.35 ± 0.14
26 | AAGGAGCAAUAUUACGGGGC | -3.81 ± 0.22 | -2.34 ± 0.16

Row | Sequence | self-splicing fitness (ln) (30 °C) | self-splicing fitness (ln) (37 °C)
27 | CGUAAGCAAUAUUACGAACU | -1.27 ± 0.083 | -0.364 ± 0.074
28 | AUCGAGCAAUAUUACGAUAA | -2.7 ± 0.26 | -1.74 ± 0.21
29 | GUUGAGCAAUAUUACGUACA | – | -2.37 ± 0.49
30 | UGGCAGCAAUAUUACGAUCG | 0.335 ± 0.067 | 1.02 ± 0.1
31 | UAUGAGCAAUAUUACGAAAU | -3.68 ± 0.37 | –
32 | UGCUAGCAAUAUUACGAGUC | -3.43 ± 0.26 | -2.5 ± 0.28
33 | CCUCAGCAAUAUUACGUAAA | -3.87 ± 0.24 | -3.05 ± 0.29
34 | CAUUAGCAAUAUUACGGCCA | -2.3 ± 0.28 | –
35 | ACAUAGCAAUAUUACGCUCU | -0.768 ± 0.084 | -0.2 ± 0.12
36 | CUUAAGCAAUAUUACGGUAC | -3.99 ± 0.36 | -3.27 ± 0.32
37 | CACAAGCAAUAUUACGCCUC | -2.86 ± 0.2 | -1.95 ± 0.23
38 | UUUCAGCAAUAUUACGCUGU | -3.52 ± 0.13 | -2.19 ± 0.21
39 | UGUUAGCAAUAUUACGCGCC | -1.13 ± 0.14 | -0.207 ± 0.24
40 | UCCUAGCAAUAUUACGAAGU | -1.47 ± 0.1 | -0.726 ± 0.14
41 | GCAAAGCAAUAUUACGACAC | -0.783 ± 0.099 | -0.461 ± 0.13
42 | GUCCAGCAAUAUUACGAUCA | -0.611 ± 0.12 | -0.93 ± 0.13
43 | AGUUAGCAAUAUUACGAUAG | -3.19 ± 0.29 | -1.77 ± 0.29
44 | AUAGAGCAAUAUUACGUCGG | -3.26 ± 0.14 | -2.27 ± 0.17
45 | CCUCAGCAAUAUUACGGACU | -3.93 ± 0.33 | -1.79 ± 0.24
46 | UACUAGCAAUAUUACGGAUA | -1.72 ± 0.096 | -0.886 ± 0.092
47 | CCGAAGCAAUAUUACGACGA | -1.44 ± 0.12 | -0.711 ± 0.13
48 | CCUGAGCAAUAUUACGCAUC | -3.39 ± 0.44 | –
49 | ACAUAGCAAUAUUACGCGGA | -2.07 ± 0.14 | -0.505 ± 0.1
50 | UGCUAGCAAUAUUACGUCAC | -3.62 ± 0.19 | -2.74 ± 0.22
51 | GUCCAGCAAUAUUACGGUGA | -0.608 ± 0.051 | -0.131 ± 0.071
52 | GGUCAGCAAUAUUACGACAA | -0.264 ± 0.062 | 0.179 ± 0.093

Row | Sequence | self-splicing fitness (ln) (30 °C) | self-splicing fitness (ln) (37 °C)
53 | CGACAGCAAUAUUACGACUU | -1.1 ± 0.059 | -0.881 ± 0.066
54 | CCUUAGCAAUAUUACGCUGA | -3.23 ± 0.47 | –
55 | AUGAAGCAAUAUUACGAUAA | -0.381 ± 0.077 | -0.287 ± 0.085
56 | UGGCAGCAAUAUUACGAGUG | -1.19 ± 0.11 | 0.196 ± 0.12
57 | GGCAAGCAAUAUUACGUCCG | -3.73 ± 0.27 | -1.61 ± 0.2
58 | ACGUAGCAAUAUUACGGGGG | -3.84 ± 0.2 | -2.44 ± 0.16
59 | UAAUAGCAAUAUUACGCCAG | -1.07 ± 0.2 | -1.2 ± 0.32
60 | GAGCAGCAAUAUUACGCUGA | -2.8 ± 0.19 | -2.13 ± 0.2
61 | UUAUAGCAAUAUUACGGUGA | -0.606 ± 0.12 | -0.405 ± 0.14
62 | UCGGAGCAAUAUUACGAAAU | -3.14 ± 0.49 | –
63 | GACGAGCAAUAUUACGUAUU | -3.7 ± 0.21 | -2.44 ± 0.18
64 | GGCAAGCAAUAUUACGAAAG | -2.97 ± 0.28 | –
65 | UUAUAGCAAUAUUACGUUUU | -3.61 ± 0.25 | -2.64 ± 0.28
66 | UGUCAGCAAUAUUACGCUCA | 0.0629 ± 0.11 | -0.236 ± 0.11
67 | GGGCAGCAAUAUUACGAGUG | -3.47 ± 0.24 | -1.64 ± 0.13
68 | CAGGAGCAAUAUUACGCUGC | -4.3 ± 0.36 | -2.82 ± 0.36
69 | GUCCAGCAAUAUUACGCCAC | -2.51 ± 0.44 | –
70 | UGUGAGCAAUAUUACGAUAG | -2.74 ± 0.24 | -0.644 ± 0.2
71 | AAGGAGCAAUAUUACGGCAC | -1.23 ± 0.47 | -1.62 ± 0.46
72 | CCGAAGCAAUAUUACGUGCG | -1.04 ± 0.085 | -0.542 ± 0.096
73 | CAAUAGCAAUAUUACGGAUU | -3.94 ± 0.2 | -3.55 ± 0.3
74 | CCGUAGCAAUAUUACGUUAA | -3.18 ± 0.4 | -2.67 ± 0.31
75 | AUUAAGCAAUAUUACGGCGG | -1.18 ± 0.16 | -0.145 ± 0.18
76 | GAUUAGCAAUAUUACGCGAC | -3.24 ± 0.31 | -2.32 ± 0.23
77 | GCCUAGCAAUAUUACGCUUC | -2.42 ± 0.16 | -0.334 ± 0.13
78 | GGUCAGCAAUAUUACGUCGG | -3.9 ± 0.36 | -0.891 ± 0.19
